Results as given in ChEMBL document CHEMBL2073913, “Functional multidrug resistance protein (MRP1) lacking the N-terminal transmembrane domain” (J Biol Chem, 1998).

Substrate: NC(CCC(=O)NC(CNCC(=O)O)CSCCN1C(=O)C=CC1=O)C(=O)O
Experiment: TP_TRANSPORTER: uptake in membrane vesicles from MRP1-expressing Sf9 cells
Assay type: functional, cell membranes, Membrane vesicle

B1: Multidrug resistance-associated protein 1 (Homo sapiens) (protein)
chain: MALRGFCSADGSDPLWDWNVTWNTSNPDFTKCFQNTVLVWVPCFYLWACFPFYFLYLSRHDRGYIQMTPLNKTKTALGFLLWIVCWADLFYSFWERSRGIFLAPVFLVSPTLLGITMLLATFLIQLERRKGVQSSGIMLTFWLVALVCALAILRSKIMTALKEDAQVDLFRDITFYVYFSLLLIQLVLSCFSDRSPLFSETIHDPNPCPESSASFLSRITFWWITGLIVRGYRQPLEGSDLWSLNKEDTSEQVVPVLVKNWKKECAKTRKQPVKVVYSSKDPAQPKESSKVDANEEVEALIVKSPQKEWNPSLFKVLYKTFGPYFLMSFFFKAIHDLMMFSGPQILKLLIKFVNDTKAPDWQGYFYTVLLFVTACLQTLVLHQYFHICFVSGMRIKTAVIGAVYRKALVITNSARKSSTVGEIVNLMSVDAQRFMDLATYINMIWSAPLQVILALYLLWLNLGPSVLAGVAVMVLMVPVNAVMAMKTKTYQVAHMKSKDNRIKLMNEILNGIKVLKLYAWELAFKDKVLAIRQEELKVLKKSAYLSAVGTFTWVCTPFLVALCTFAVYVTIDENNILDAQTAFVSLALFNILRFPLNILPMVISSIVQASVSLKRLRIFLSHEELEPDSIERRPVKDGGGTNSITVRNATFTWARSDPPTLNGITFSIPEGALVAVVGQVGCGKSSLLSALLAEMDKVEGHVAIKGSVAYVPQQAWIQNDSLRENILFGCQLEEPYYRSVIQACALLPDLEILPSGDRTEIGEKGVNLSGGQKQRVSLARAVYSNADIYLFDDPLSAVDAHVGKHIFENVIGPKGMLKNKTRILVTHSMSYLPQVDVIIVMSGGKISEMGSYQELLARDGAFAEFLRTYASTEQEQDAEENGVTGVSGPGKEAKQMENGMLVTDSAGKQLQRQLSSSSSYSGDISRHHNSTAELQKAEAKKEETWKLMEADKAQTGQVKLSVYWDYMKAIGLFISFLSIFLFMCNHVSALASNYWLSLWTDDPIVNGTQEHTKVRLSVYGALGISQGIAVFGYSMAVSIGGILASRCLHVDLLHSILRSPMSFFERTPSGNLVNRFSKELDTVDSMIPEVIKMFMGSLFNVIGACIVILLATPIAAIIIPPLGLIYFFVQRFYVASSRQLKRLESVSRSPVYSHFNETLLGVSVIRAFEEQERFIHQSDLKVDENQKAYYPSIVANRWLAVRLECVGNCIVLFAALFAVISRHSLSAGLVGLSVSYSLQVTTYLNWLVRMSSEMETNIVAVERLKEYSETEKEAPWQIQETAPPSSWPQVGRVEFRNYCLRYREDLDFVLRHINVTINGGEKVGIVGRTGAGKSSLTLGLFRINESAEGEIIIDGINIAKIGLHDLRFKITIIPQDPVLFSGSLRMNLDPFSQYSDEEVWTSLELAHLKDFVSALPDKLDHECAEGGENLSVGQRQLVCLARALLRKTKILVLDEATAAVDLETDDLIQSTIRTQFEDCTVLTIAHRLNTIMDYTRVIVLDKGEIQEYGAPSDLLQQRGLFYSMAKDAGLV
Protein B1 has a Km of 155 µM.
